Laboratory results as given in publication PMC5445078, “Probing the Roles of Calcium-Binding Sites during the Folding of Human Peptidylarginine Deiminase 4” (Scientific Reports, 2017).
Residue numbers refer to the chain shown, from its start. Names and notes keep the numbering of the source.

B1: PAD4 Ca1_site mutant (Q349A/E353A/E411A) (enzyme, human, UniProt Q9UM07 1-663, looked up)
chain: MAQGTLIRVTPEQPTHAVCVLGTLTQLDICSSAPEDCTSFSINASPGVVVDIAHGPPAKKKSTGSSTWPLDPGVEVTLTMKVASGSTGDQKVQISYYGPKTPPVKALLYLTGVEISLCADITRTGKVKPTRAVKDQRTWTWGPCGQGAILLVNCDRDNLESSAMDCEDDEVLDSEDLQDMSLMTLSTKTPKDFFTNHTLVLHVARSEMDKVRVFQATRGKLSSKCSVVLGPKWPSHYLMVPGGKHNMDFYVEALAFPDTDFPGLITLTISLLDTSNLELPEAVVFQDSVVFRVAPWIMTPNTQPPQEVYACSIFENEDFLKSVTTLAMKAKCKLTICPEEENMDDQWMADEMAIGYIQAPHKTLPVVFDSPRNRGLKEFPIKRVMGPDFGYVTRGPQTGGISGLDSFGNLAVSPPVTVRGKEYPLGRILFGDSCYPSNDSRQMHQALQDFLSAQQVQAPVKLYSDWLSVGHVDEFLSFVPAPDRKGFRLLLASPRSCYKLFQEQQNEGHGEALLFEGIKKKKQQKIKNILSNKTLREHNSFVERCIDWNRELLKRELGLAESDIIDIPQLFKLKEFSKAEAFFPNMVNMLVLGKHLGIPKPFGPVINGRCCLEEKVCSLLEPLGLQCTFINDFFTYHIRHGEVHCGTNVRRKPFSFKWWNMVP
notes: human peptidylarginine deiminase 4 (PAD4), cDNA cloned into pQE30; source: E. coli JM109, purified (Ni-NTA)
B2: human PAD4 Ca1_site mutant (Q349A/E353A/E411A) (enzyme, UniProt Q9UM07 1-663, looked up)
chain: B1 chain
notes: source: E. coli JM109, purified (Ni-NTA)
B3: PAD4 Ca4_site mutant (D155A/D157A/D179A/D388A) (enzyme, human, UniProt Q9UM07 1-663, looked up)
chain: B1 chain with D155A, D157A, D179A, A349Q, A353E, D388A, A411E
notes: as for B1
B4: PAD4 Ca2_site mutant (E351A/D369A/N373A) (enzyme, human, UniProt Q9UM07 1-663, looked up)
chain: B1 chain with A349Q, E351A, A353E, D369A, N373A, A411E
notes: as for B1
B5: human PAD4 Ca4_site mutant (D155A/D157A/D179A/D388A) (enzyme, UniProt Q9UM07 1-663, looked up)
chain: B1 chain with D155A, D157A, D179A, A349Q, A353E, D388A, A411E
notes: as for B2
B6: human PAD4 Ca2_site mutant (E351A/D369A/N373A) (enzyme, UniProt Q9UM07 1-663, looked up)
chain: B1 chain with A349Q, E351A, A353E, D369A, N373A, A411E
notes: as for B2
B7: PAD4 Ca3_site mutant (N153A/D155A/D157A/D165A/D176A/D179A) (enzyme, human, UniProt Q9UM07 1-663, looked up)
chain: B1 chain with N153A, D155A, D157A, D165A, D176A, D179A, A349Q, A353E, A411E
notes: as for B1
B8: human PAD4 Ca3_site mutant (N153A/D155A/D157A/D165A/D176A/D179A) (enzyme, UniProt Q9UM07 1-663, looked up)
chain: B1 chain with N153A, D155A, D157A, D165A, D176A, D179A, A349Q, A353E, A411E
notes: as for B2

Key:
[1] = target: human PAD4 Ca5_site mutant (D168A/E252A) (human) (UniProt Q9UM07); test: AUC; sedimentation velocity, 20 °C, 42,000 rpm, absorbance at 280 nm, SEDFIT continuous size distribution; no urea, 10 mM Ca2+, 50 mM Tris-HCl pH 7.4; dimer to monomers
[2] = target: the molecule itself; test: AUC; sedimentation velocity at three protein concentrations (0.1, 0.3 and 0.9 mg/ml), globally fit with SEDPHAT; dimer to monomers
[3] = target: the molecule itself; test: AUC; sedimentation velocity, 20 °C, 42,000 rpm, absorbance at 280 nm, SEDFIT continuous size distribution; no urea, 10 mM Ca2+, 50 mM Tris-HCl pH 7.4; dimer to monomers

Molecule	Kd [2] [nM]	stoichiometry N [3]	also measured
human PAD4 Ca5_site mutant (D168A/E252A) (from UniProt Q9UM07 1-663) (enzyme)	–	–	stoichiometry N [1]: 2
B1	160 ± 1	–	–
B2	–	2	–
B3	410 ± 4	–	–
B4	150 ± 1	–	–
B5	–	2	–
B6	–	2	–
B7	160 ± 1	–	–
B8	–	2	–
